Patent US6900033 (dated 2005)
Positions of bridges follow the written chain, without caps; N, C: chain ends.

Target: ACE-2 (human)
Experiment: other, ACE-2 enzyme inhibition

ACE-2 (human), sequence (Q9BYF1 1-740): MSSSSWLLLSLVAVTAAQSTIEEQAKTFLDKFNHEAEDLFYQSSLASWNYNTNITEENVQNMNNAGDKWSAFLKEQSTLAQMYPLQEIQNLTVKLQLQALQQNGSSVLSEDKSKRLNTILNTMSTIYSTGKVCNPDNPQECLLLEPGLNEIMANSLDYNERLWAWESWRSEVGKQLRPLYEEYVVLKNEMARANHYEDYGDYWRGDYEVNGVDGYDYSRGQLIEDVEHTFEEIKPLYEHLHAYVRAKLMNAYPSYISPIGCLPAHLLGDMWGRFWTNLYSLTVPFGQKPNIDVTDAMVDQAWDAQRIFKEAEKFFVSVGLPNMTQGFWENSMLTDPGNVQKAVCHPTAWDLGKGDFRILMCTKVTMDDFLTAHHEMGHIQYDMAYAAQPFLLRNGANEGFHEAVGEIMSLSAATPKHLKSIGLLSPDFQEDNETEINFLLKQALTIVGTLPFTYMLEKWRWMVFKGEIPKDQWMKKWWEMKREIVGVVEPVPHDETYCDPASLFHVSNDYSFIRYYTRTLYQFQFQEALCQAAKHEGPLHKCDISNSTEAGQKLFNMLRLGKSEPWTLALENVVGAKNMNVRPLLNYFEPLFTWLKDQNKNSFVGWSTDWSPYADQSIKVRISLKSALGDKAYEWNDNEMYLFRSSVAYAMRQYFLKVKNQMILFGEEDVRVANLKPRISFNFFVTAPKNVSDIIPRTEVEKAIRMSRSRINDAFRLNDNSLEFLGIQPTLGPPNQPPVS

Ki | Binder
150 nM | Ac-GDLHACRPVRGDPWWACTLGDPEGGG-NH2 (disulfide 6-17 (inferred)) [DX-513]
150 nM | Ac-GDRLHCKPQRQSPWMKCQHLDPEGGG-NH2 (disulfide 6-17 (inferred)) [DX-512]
